The values below come from paper PMC6626044, “Molecular basis of egg coat cross-linking sheds light on ZP1-associated female infertility” (Nature Communications, 2019).

Series [1] deals with chicken ZP1 ZP-N1 domain, recombinant, wild type (chicken). The series can be described thus: non-reducing against reducing SDS-PAGE with immunoblot; conditioned medium of transfected HEK293 cells, anti-5His immunoblot; shows only covalent (disulphide-bonded) oligomers. (In general: A western blot detects proteins with antibodies after separation by electrophoresis.)
The target is the same in series [2]. Kind of series: SEC; IMAC-purified protein, analytical SEC at 4 °C in 20 mM Na-HEPES pH 7.8, 150 mM NaCl (HiLoad 26/600 Superdex 75 pg or Superdex 75 Increase 10/300 GL), fractions on Coomassie-stained SDS-PAGE. In general terms: In gel filtration, larger molecules generally elute earlier.
For series [3], the target named is chicken ZP1, full length, 6His-tagged (chicken). The series can be described thus: non-reducing against reducing SDS-PAGE with immunoblot; conditioned medium of transfected HEK293 cells, anti-5His immunoblot; shows only covalent (disulphide-bonded) oligomers.
The target in series [4] is chicken ZP4 ZP-N1 domain, 6His-tagged (chicken). Kind of series: SEC; IMAC-purified protein, analytical SEC at 4 °C in 20 mM Na-HEPES pH 7.8, 150 mM NaCl (HiLoad 26/600 Superdex 75 pg or Superdex 75 Increase 10/300 GL), fractions on Coomassie-stained SDS-PAGE.
For series [5], the target named is ~21 kDa N-terminal fragment of native chicken ZP1 (chicken). The series can be described thus: non-reducing against reducing SDS-PAGE with immunoblot; SEC fractions (Sephacryl S-300 HR) of chicken egg coat solubilised by sperm protease, anti-cZP1 N-terminal fragment polyclonal; bands confirmed by MALDI-MS/MS.
Series [6] concerns the molecule itself. The series can be described thus: non-reducing against reducing SDS-PAGE with immunoblot; conditioned medium of transfected HEK293 cells, anti-5His immunoblot; shows only covalent (disulphide-bonded) oligomers.
Series [7] deals with the molecule itself. Kind of series: SEC; IMAC-purified protein, analytical SEC at 4 °C in 20 mM Na-HEPES pH 7.8, 150 mM NaCl (HiLoad 26/600 Superdex 75 pg or Superdex 75 Increase 10/300 GL), fractions on Coomassie-stained SDS-PAGE.

“chicken ZP1 ZP-N1 domain, recombinant, wild type (domain or fragment)”: the stoichiometry N in series [1] and in series [2] was 2 in each case.

Molecule “chicken ZP1, full length, 6His-tagged (natural protein)” came in with a stoichiometry N in series [3] of 2.

“chicken ZP4 ZP-N1 domain, 6His-tagged (from UniProt A0A8V0ZLW5 1-148) (domain or fragment)” gave a stoichiometry N in series [4] of 2.

With “~21 kDa N-terminal fragment of native chicken ZP1 (domain or fragment)”, the stoichiometry N in series [5] turned out to be 2.

B1: human ZP1, wild type, 6His-tagged (natural protein, UniProt P60852 26-553, looked up)
chain: RWLQPDPGLPGLRHSYDCGIKGMQLLVFPRPGQTLRFKVVDEFGNRFDVNNCSICYHWVTSRPQEPAVFSADYRGCHVLEKDGRFHLRVFMEAVLPNGRVDVAQDATLICPKPDPSRTLDSQLAPPAMFSVSTPQTLSFLPTSGHTSQGSGHAFPSPLDPGHSSVHPTPALPSPGPGPTLATLAQPHWGTLEHWDVNKRDYIGTHLSQEQCQVASGHLPCIVRRTSKEACQQAGCCYDNTREVPCYYGNTATVQCFRDGYFVLVVSQEMALTHRITLANIHLAYAPTSCSPTQHTEAFVVFYFPLTHCGTTMQVAGDQLIYENWLVSGIHIQKGPQGSITRDSTFQLHVRCVFNASDFLPIQASIFPPPSPAPMTQPGPLRLELRIAKDETFSSYYGEDDYPIVRLLREPVHVEVRLLQRTDPNLVLLLHQCWGAPSANPFQQPQWPILSDGCPFKGDSYRTQMVALDGATPFQSHYQRFTVATFALLDSGSQRALRGLVYLFCSTSACHTSGLETCSTACSTGTTRQ
notes: human zona pellucida glycoprotein 1 (hZP1), wild type, synthetic cDNA in pHLsec3; the secreted form in the medium was analysed; also called hZP1; full-length hZP1; source: HEK293T, transiently transfected, secreted into the conditioned medium
As to B1, the “stoichiometry N” value in series [6] stood at 2.

B2: human ZP1 ZP-N1 domain, H102 mutant (domain or fragment)
chain: RWLQPDPGLPGLRHSYDCGIKGMQLLVFPRPGQTLRFKVVDEFGNRFDVNNCSICYHWVTSRPQEPAVFSADYRGCAVLEKDGRFHLRVFMEAVLPNGRVDVAQDATLICPKPDPSRTLDSQLA
For B2, the “stoichiometry N” value in series [6] stood at 2.

B3: human ZP1 ZP-N1 domain, His-tagged, wild type (domain or fragment, UniProt P60852 26-149, looked up)
chain: RWLQPDPGLPGLRHSYDCGIKGMQLLVFPRPGQTLRFKVVDEFGNRFDVNNCSICYHWVTSRPQEPAVFSADYRGCHVLEKDGRFHLRVFMEAVLPNGRVDVAQDATLICPKPDPSRTLDSQLA
notes: signal peptide in the construct; human ZP1 ZP-N1 domain, M1-A149; also called hZP1-N1; hZP1_(M1-A149); source: HEK293T, transiently transfected; conditioned medium, and purified (IMAC, SEC); not shown: His, C-terminal, kept
Take B3: the “stoichiometry N” value in series [6] came out at 2.

B4: human ZP1 ZP-N1 domain, H82 mutant (domain or fragment)
chain: RWLQPDPGLPGLRHSYDCGIKGMQLLVFPRPGQTLRFKVVDEFGNRFDVNNCSICYAWVTSRPQEPAVFSADYRGCHVLEKDGRFHLRVFMEAVLPNGRVDVAQDATLICPKPDPSRTLDSQLA
For B4, the “stoichiometry N” value in series [6] was 2.

B5: mouse ZP1 ZP-N1 domain, 6His-tagged, wild type (domain or fragment, UniProt Q62005 21-141, looked up)
chain: QRLHLEPGFEYSYDCGVRGMQLLVFPRPNQTVQFKVLDEFGNRFEVNNCSICYHWVTSEAQEHTVFSADYKGCHVLEKDGRFHLRVFIQAVLPNGRVDIAQDVTLICPKPDHTVTPDPYLA
notes: signal peptide in the construct; mouse ZP1 ZP-N1 domain, M1-A141, in pHLsec3; Heterogeneous glycosylation at N49 and N68 gives two bands on SDS-PAGE; also called mZP1-N1; mZP1-N1_(M1-A141); source: HEK293, transiently transfected; conditioned medium, and purified (IMAC, SEC); not shown: 6His, C-terminal, kept
Take B5: the “stoichiometry N” value in series [7] worked out at 2.

As usually defined, the stoichiometry N is the number of molecules, sites or subunits per partner or assembly.
